Test results as given in patent publication US20250144213A1 (UTC THERAPEUTICS SHANGHAI, published 2025).

Target: T1, CD123-Fc recombinant protein (human, UniProt P26951 19-305)
T1 construct: Soluble staining reagent; also called CD123-Fc protein; not shown: Fc part
T1 sequence (looked up): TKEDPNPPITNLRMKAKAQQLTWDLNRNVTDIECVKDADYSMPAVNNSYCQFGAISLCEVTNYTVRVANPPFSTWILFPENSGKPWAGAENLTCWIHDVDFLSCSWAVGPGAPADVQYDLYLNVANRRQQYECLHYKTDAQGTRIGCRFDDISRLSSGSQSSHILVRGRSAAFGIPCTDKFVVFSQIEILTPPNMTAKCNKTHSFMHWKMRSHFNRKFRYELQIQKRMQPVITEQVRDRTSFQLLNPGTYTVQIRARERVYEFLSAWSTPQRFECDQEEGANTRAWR
Assay: FACS staining of CAR-T cells with CD123-Fc recombinant protein (FIG. 28)

B1: anti-CD123 scFv-C3 (scFv)
scFv: AIQMTQSPSSLSASVGDRVTITCRASQGIGTYLAWFQQKPGKAPKSLIYAASNLQSGVPSKFSGSGSGTDFTLTISNLQPEDFATYYCQQYKGYPLTFGGGTKLEIKGGGGSGGGGSGGGGSQVQLVQSGAEVKKPGSSVKVSCKASGGTFSSYAISWVRQAPGQGLEWMGGIIPIFGTANYAQKFQGRVTITADESTSTAYMELSSLRSEDTAVYYCARDSGWFGPRYYFDYWGQGTLVTVSS
notes: also called C3 scFv
B1: binds.

B2: anti-CD123 scFv-C5 (scFv)
scFv: NFMLTQPHSVSESPGKTVTLSCTRSSGSIAGSYVQWYQQRPGSSPTTVIFQDNQRPSGVPDRFSGSIDKSSNSASLTISGLKTEDEADYYCQSYDSNNQVFGGGTKLTVLGGGGSGGGGSGGGGSEVHLVESGGGVVRPGGSLRLSCAASGFTFGDYGMSWVRQAPGKGLEWVSGINWNGGRTGYADSVKGRFTISRDNAKNSLYLQMNSLRAEDTALYYCARARGSGSYFGYMDVWGKGTTVTVSS
notes: also called C5 scFv; C5 CAR
B2: binds.

B3: anti-CD123 scFv-C4 (scFv)
scFv: QSALTQPPSASGTPGQRVTISCSGSSSNIGSNYVNWYQQLPGTAPKLLIYRNNQRPSGVPDRFSGSKSGTSASLAISGLRSEDEADYYCAAWDDSLSGHGVFGTGTELTVLGGGGSGGGGSGGGGSQVQLVQSGPEVKKPGASVKVSCKASGYDFIRYYMNWVRQAPGQGPEWMGAIDPSDGDTTYGQKFQGRVTLTRDTFTSTVYMELSSLRSEDTAVYYCARDWELTNSYGLDVWGQGTTVTVSS
notes: also called C4 scFv
B3: binds.

B4: anti-CD123 scFv-C9 (scFv)
scFv: QSVLTQPPSASGTPGQRVTISCSGSNSNIENNYVYWYQHLPGTAPKRLIYQNNQRPSGVPDRFSGSKSGTSASLAISGLRSEDEADYYCSAWDDSLSAWVFGGGTELTVLGGGGSGGGGSGGGGSEVHLVESGGGLVQPGRSLRLSCTASGFTFGDYAMNWVRQAPGKGLEWVGFIRSKASGGTTDYAASVKGRFTISRDDSKSIAYLQMNSLKTEDTAVYYCTRALRGYSYGLFDYWGQGTLVTVSS
notes: also called C9 scFv
B4: binds.

B5: anti-CD123 scFv-C1 (scFv)
scFv: QSALTQPASVSGSPGQSITISCTGTSSDIGAYNYVSWYQQHPGKAPKLIIYDVSHRPSGVSNRFSGSKSGNTASLTISGLQSEDEADYYCSSDTNNNTLVFGVGTKLTVLGGGGSGGGGSGGGGSEVHLVESGGGVVQPGRSLRLSCAASGFTFSSYGMHWVRQAPGKGLEWVAVIWYDGSNKYYADSVKGRFTISRDNSKNTLYLQMNSLRAEDTAVYYCARDRDGFFLPMYYFDYWGQGTLVTVSS
notes: also called C1 scFv
B5: binds.

B6: anti-CD123 scFv-C6 (scFv)
scFv: SYELTQPPSVSVSPGQTARIPCSGADLGDQYVSWYQHQPGQSPLLVIYEDDKRPSGIPERFSGSNSGNTATLTISGTQAMDEADYYCQAWDGNAAIFGGGTKLTVLGGGGSGGGGSGGGGSQVQLVQSGGGSVQPGGSLRLSCAASGFTFTRYSMNWVRQAPGKGLEWVSYISSSSSTIYYADSVKGRFTISRDNAKNSLYLQMNSLRDEDTAVYYCARDGYGGNSDYYGMDVWGQGTTVTVSS
notes: also called C6 scFv
B6: binds.

B7: anti-CD123 scFv-C2 (scFv)
scFv: QSVVTQPPSVSAAPGQKVTISCSGSSSNIGNNYVSWYQQFPGTAPKLLIYDNNKRPSGIPDRFSGSKSGTSGTLGITGLQTGDEADYYCVTWDTSLSAGVFGGGTKLTVLGGGGSGGGGSGGGGSQITLKESGGGLVKPGGSLRLSCAASGFTFSNAWMSWVRQAPGKGLEWVGRIKSKTDGGTTDYAAPVKGRFTISRDDSKNTLYLQMNSLKTEDTAVYYCTTDPHGYYYGMDVWGQGTTVTVSS
notes: also called C2 scFv
B7: binds.

B8: anti-CD123 scFv-C10 (scFv)
scFv: SYELTQPPSVSVAPGKTARITCGGNNIGSKSVHWYQQKPGQAPVLVVYDDSDRPSGIPERFSGSNSGNTATLTISRVEAGDEADYYCQVWDSSSDHWVFGGGTKLTVLGGGGSGGGGSGGGGSQVQLVQSGAEVKKPGSSVKVSCKASGGTFSSYAISWVRQAPGQGLEWMGGIIPIFGTANYAQKFQGRVTITADESTSTAYMELSSLRSEDTAVYYCAREKWGYYGDYYYGMDVWGQGTTVTVSS
notes: also called C10 scFv
B8: binds.
